{"source": "patent US20220154156A1", "about": "“PROTEINS AND METHODS FOR DISRUPTING BACTERIAL COMMUNICATION” (REGENTS OF THE UNIVERSITY OF MINNESOTA, priority 2019, published 2022)", "key": {"[1]": {"tested_on": "Xanthomonas translucens pv. translucens LMG876", "test": "Barley leaf infection", "format": "in vivo", "settings": "single spraying of 1 mL, 10 mg/mL", "experimental": "FIG. 30A-30F show control of plant infections by a single spraying of 1 mL of lactonase solution (10 mg/mL) on plant leaves and crop. (A) and (B) Soft rot potato assay.\nSpecifically, we could establish infection systems for corn, wheat, and barley plants, and a crop infection system for potato (tubers and leaves)."}, "[2]": {"tested_on": "Clavibacter michiganensis subsp. Nebraskensis", "test": "Corn infection assay", "format": "in vivo", "settings": "lactonase spray", "experimental": "FIG. 31 show control of plant infections by a single spraying of 1 mL of lactonase solution (10 mg/mL) on corn leaves. The Viking maize seed (40-30UP) were grown in Euro pot (diameter 8 inch) with sterilized soil mixture (50 standard soil/50 Germinating Mix) in a green house under diurnal conditions with 16 hours lights at 22° C. and 8 hours dark at 18° C. Plant leaves were infected with Clabibacter michiganensis subsp. nebraskensis by dipping the clipped leaf into cell suspension ([…]). Shown are duplicates plants for the control treatment (left) and lactonase treatment (right).\nMoreover, we specifically established a corn infection assay using the pathogen Clavibacter michiganensis subsp. Nebraskensis."}, "[3]": {"tested_on": "complex soil microbial community", "test": "Biofilm quantification in flow-through recirculating bioreactor", "format": "cell-based", "settings": "over 21 days", "experimental": "After overnight induction (18° C., 0.2% L-Arabinose, 200 RPM shaking), cells overexpressing proteins were centrifuged (4,400×g, 20 min, 4° C.) and re-suspended in 100 mM potassium phosphate buffer, pH 7, at a concentration of 0.4 g/mL wet weight (0.2 g/mL for the 1× lactonase beads). Gel beads (1 mm diameter) containing the lactonase/control bacteria cultures were made using a dripping method while gelation occurred, using a method similar to a previously used protocol^41 400 mg PEG (average molecular weight, 10,000 Da) was mixed with 4 mL acetic acid (0.01M) until the PEG dissolved. […]\nThe flow-through system used in this study consisted of three 3-liter tanks set up in parallel. […] Each tank contained three liters of 15× diluted LB media in water and a pre-broken 96-stripwell plate was submerged to the bottom (so that individual wells could be harvested for either biofilm quantification or DNA extraction). […]\nInside each of the tanks sat two submerged 96-stripwell plates. […] Individual wells were extracted in triplicate for crystal violet biofilm quantification (OD550 nm) using a similar protocol as previously described^13. […] To quantify biofilm, the remaining crystal violet stained to the wells was solubilized with 125 μL of 30% acetic acid and this solution was read on a spectrophotometer at 550 nm. […]"}, "[4]": {"tested_on": "biofilm of complex soil microbial community", "test": "Biofilm microbial community analysis (16S, MiSeq)", "format": "cell-based", "experimental": "DNA extractions were carried out on biofilms. Submerged wells from the strip-well plates were drained of excess cells/water. Biofilm was scraped from the polypropylene well and put into Powerbead® tubes for DNA extraction (MoBio Powersoil® DNA Extraction Kit). Purified DNA samples were submitted to the University of Minnesota's Genomics Center for 16S rRNA sequencing. Using the Genomics Center platform, each sample underwent amplification, indexing, normalization, pooling, size selection, and final QC for sequencing. The V4 region of the 16s rRNA gene was amplified using primer 515f (5′-GTGCCAGCMGCCGCGGTAA-3′ (SEQ ID NO:14)). After the library preparation steps, it was confirmed all samples passed QC and were submitted for sequencing.\nAll samples were processed using Mothur v1.35.1. For each sample, 1,250 sequences were used for final analyses. […] Analysis of similarity (ANOSIM) and analysis of molecular variances (AMOVA) were used to evaluate the beta diversity (community composition) among samples using Bray-Curtis dissimilarity matrices (BC) (Bray & Curtis 1957; Clarke 1993). Ordination of Bray-Curtis matrices was performed using principal coordinate analysis (PCoA) to further analyze diversity of sample days throughout the tank (Anderson & Willis 2003). […] All of alpha values evaluated at α=0.05."}, "[5]": {"tested_on": "suspension soil microbial community", "test": "Effect of lactonase on suspension soil community", "format": "cell-based", "settings": "0.5 mg/mL, days 3 and 7", "experimental": "Inoculum were prepared by re-suspending about 5 grams of soil (taken outside GortnerLab building, Saint Paul Campus, Saint Paul, Minn., USA) in 40 mL of water. After a homogenous mixture was achieved, the suspension was lightly centrifuged (5 min, 500×g) and 200 uL of the cloudy supernatant was added to 30 mL of LB media and allowed to grow overnight. This inoculum was used to inoculate 15× diluted LB media (in water) cultures. […] Samples were collected for DNA extraction after 3 and 7 days.\nAll samples were processed using Mothur v1.35.1. For each sample, 1,250 sequences were used for final analyses. […] Analysis of similarity (ANOSIM) and analysis of molecular variances (AMOVA) were used to evaluate the beta diversity (community composition) among samples using Bray-Curtis dissimilarity matrices (BC) (Bray & Curtis 1957; Clarke 1993). Ordination of Bray-Curtis matrices was performed using principal coordinate analysis (PCoA) to further analyze diversity of sample days throughout the tank (Anderson & Willis 2003). To visualize the distribution of taxonomies and diversities in microbial communities among the samples, R v3.3.1 was used to conduct the normalized relative abundance and OTUs at genus level^45. All of alpha values evaluated at α=0.05."}}, "data": [{"molecule": "SsoPox W263I: improved variant of the hyperthermostable lactonase SsoPox from Sulfolobus solfataricus, exhibiting higher catalytic rates (protein, UniProt Q97VT7 1-314, looked up, variant W263I) Aryldialkylphosphatase: MRIPLVGKDSIESKDIGFTLIHEHLRVFSEAVRQQWPHLYNEDEEFRNAVNEVKRAMQFGVKTIVDPTVMGLGRDIRFMEKVVKATGINLVAGTGIYIYIDLPFYFLNRSIDEIADLFIHDIKEGIQGTLNKAGFVKIAADEPGITKDVEKVIRAAAIANKETKVPIITHSNAHNNTGLEQQRILTEEGVDPGKILIGHLGDTDNIDYIKKIADKGSFIGLDRYGLDLFLPVDKRNETTLRLIKDGYSDKIMISHDYCCTIDIGTAKPEYKPKLAPRWSITLIFEDTIPFLKRNGVNEEVIATIFKENPKKFFS", "values": [{"measurement": "leaf spots on barley leaves", "setting": "[1]", "value": "Absence of leaf spots"}, {"measurement": "symptoms of infection in corn plants", "setting": "[2]", "value": "protected the plant from showing any symptoms of infection"}, {"measurement": "reduction of biofilm formation", "setting": "[3]", "value": 2, "unit": "fold"}, {"measurement": "Aeromonas share of the biofilm community", "setting": "[4]; day 7, lactonase 1×", "value": 79.68, "unit": "%"}, {"measurement": "Aeromonas share of the biofilm community", "setting": "[4]; day 7, lactonase 2×", "value": 42.16, "unit": "%"}, {"measurement": "composition of suspension community vs inactive variant", "setting": "[5]", "value": "communities are significantly different"}]}]}
